B1: TPR t1 (parent)
chain: GACCAAUCUGCCCUCAGAGCUCGAGAACAUCUUCGGAUGCAGAGGAGGCAGGCUUCGGUGGCGCGAUAGCGCCAACGUCCUCAACCUCCAAUGCAUCCCACCACAUGAUGAUGCCUGAAGAGCCUUGGUUUUUUG

Variants of: B1
Assay: polymerase ribozyme fitness, log enrichment relative to wild type (log ratio); higher = more active; in vitro selection for triplet polymerase activity
How it was run: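 After PCR construction and transcription, each subunit's mutant library from a heterodimeric triplet polymerase ribozyme was annealed with a biotinylated primer, the partner subunit and triplets. Incubation was frozen, at −7 °C, and extended constructs were gel-excised, bound to streptavidin beads and amplified by RT-PCR, in one selection round done in triplicate. Fitness is the logarithm of a genotype's enrichment divided by that of the wild type, from inverse-variance-weighted replicate averages of Illumina-sequenced inputs and outputs. The base of the logarithm is 2, and genotypes needed ≥10 input reads and ≥1 read per output.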

Variant | polymerase ribozyme fitness (log ratio)
C53U A90U | -0.929
G52C G71U U132A | -0.43
C53A G63A U78C | -2.46
G51U A66G | -4.49
C53G C123U | 0.236
G51U C64A G69C | -3.5
C53A A105U | -2.72
C53G G57U G61A | -0.189
C53U G71A C101G U130A | -3.93
C53G C56A G60A A111G | -0.505
G51C C56A G77U U78A | -3.51
G52U G61C C123A | -0.217
G52C C72A C94U G128A | -2.33
C53G C62A C70U U78G | -2.63
G51A C89U U130A | -3.01
C53A G127U | -0.16
C53A U55A C70U | -0.287
G51A G57U A83G A84U A105G U130G | -6.12
G52U G63A G120U | -1.08
G51U U78G U112C C123A U130A | -3.11
C53A G117A | 0.856
G51A A68C C79G C80G A84C C124G G128C | -7.23
G52A G69A G93U C123U | -3.78
U54A C56G G61A | -0.683

Variant | polymerase ribozyme fitness (log ratio)
A50U U87A | -1.09
C53U U96C | -0.173
C53U C85U G127C | -2.36
G52U G63A C101G C114G | -6.25
C53U G69U C73U | 0.0642
G52C G57C C79G C86U C115U | -1.83
G52U C72G C79A G110A C123A | -3.69
G52A C80U | -1.94
G51C C62U U112C | -2.27
C53G G110C | -4.65
C53U A74G C98U | -1.16
G52A C64A C101A C115A | -6.42
G52U U81A | -2.79
C53A G69C | -1.38
G51U C82A A95C C124U | -4.21
C53U C73G | -2.05
C53A G71A C85A G135U | -4.02
G52U G117U U133A | -3.76
C53U G71U G127A | -1.14
G52U G63U | -0.651
C53U G60U | 0.63
G51C C85G | -4.34
C53G A66C A83G A84U | -3.08
G52U C94U U106A A119G | -0.397

Variant | polymerase ribozyme fitness (log ratio)
G51A A68U C82U C124U | -7.31
C53G G61C | -1.1
C53G C72U | -1.04
C53U G71A G93A | -1.43
G51A C53G | -2.12
C53A G71C C85A G117A U125G | -5.65
G52A C53A G77A A84U G122A | -2.24
G52C C123G | 0.381
C53U C72U G77U C82G A111C | -1.23
G51A A83C | -3.73
A50U U55G C98U G127A | -5.19
U54A C72U C102G U112G | -5.88
G51U C53U | -2.7
A50U G61U | -0.766
A50U G61A | -1.36
G52A U55A G120C C123A C124U G135A | 1.07
G51A C62A U116G C124A | -5.64
G51A U131A | -2.2
G51A C53A G61A C73U U133A | -2.11
G51A C79A G113A | -3.64
G51A G60A A84G G120U | -2.9
C53U C86G | -0.977
C53U C73G G113C | -4.51
G52U U106A | -0.189

Variant | polymerase ribozyme fitness (log ratio)
A50U U54C C73A A95C | -1.37
C53G U87G C97U G117U | -4.2
A50U U125G G127C | -3.43
C53U G93A | -0.887
C53G C64U G110U | -3.95
C53A C72G U92G | -2.94
G51U C53G C124A U133A U134G | -1.64
G52C C70A G110C | -6.64
C53G C72A U112G G113C | -7.66
C53G G69A | -3.62
C53G G63C G93C C114A | -3.01
G51U C53U C85A G93C | -5.05
G51C U87A G120A | -3.27
G52C U55C U78C C82U | -0.756
C53G C70G C104U C114U G120U C123G C124A | -6.46
G52C U116A G120A | -2.46
C53U C70U A74G G113C | -4.41
G52U C64U U116C | -2.49
G52U C76G C97U | -2.35
G52C G69U C99U | -1.34
C53U C99G A119G | -7.41
G52U G61C U130G | -1.58
G52C C124U | 1.26
U54A C86U C124U | 1.14

Variant | polymerase ribozyme fitness (log ratio)
C53U A90G A95G | 0.749
C53U A91C U92A G122A | -4.02
A50U G63A C124G | -0.873
U54A C73U A121U U130A | 2.07
C53A G93C | -0.396
G52C C79G | -0.316
G51U U59G G63C G77C C80U U87C C124G U131G | -0.602
C53U G60C U87A | -1.09
C53U C62U A111U A118U G135A | -3.23
G51A U112A | -1.47
A50U U59G U112G | -0.842
C53G C104U A111G | 0.815
G51U C85U | -4.37
C53A G71A | -0.89
C53A G63A U78C G110U | -3.53
G52U G60A C104U C115G A121C | -4.03
U54A A68G G71U C80G C102G G113U U125A | -6.12
G52A C56G U96G | -1.35
A50U G63A U106A G135C | -2.47
G51A C72G U96A | -3.94
C53A U78C C82U C102U | -0.997
C53G C114U | -2.03
U54A C70U C94A | -1.72
G51U G127A | -4.52

Variant | polymerase ribozyme fitness (log ratio)
G52U G69U G71C | -1.06
G52A U55A G61A C97U C101G U125G | -2.53
G51U A91G | -5.12
G52C G60U | -1.44
G52C G63A C102U C104A | -3.27
C53A U112G C124A | 0.889
G52C G61C C114G G120U | -5.46
A50U U78G A90U | -3.54
C53A U106G A121U | 0.877
G52C A83G | -1.31
G51A G127A | -3.6
G51U G71A A90G C98G C114A C123U | -6.6
G51C G61U C64A C79A G117A U133G | -6.91
G51C A111U | -6.8
G51U C88U G113C | -5.71
G52A G71A U96G | -1.57
C53U C80A | -4.94
A50U U106A | -0.951
C53G G117A U132A | -1.03
C53A C56A A90G C97A U132C | -3.46
G52A C62U | -0.528
C53U C94A A121C | 0.891
G51C G58A A100C C124U | -4.88
G52A A95C G113C | -3.3

Variant | polymerase ribozyme fitness (log ratio)
C53U C72U C79A C85U C88U | -2.53
G52A C82U | -0.917
C53G G107U C123G | -2.73
G51C C80G G135U | -1.27
G51U G61C | -3.56
C53A U112A | 0.632
C53A G71A C124A | 0.149
G52A G120U | -0.416
G51A A121U | -0.44
C53G G58C C62A C85U G113A | -2.93
G52C A95G G120C U125A | -0.335
C53A G61U C82G A84G | -0.925
C53A C56A G58C A68U C80A | -6.56
C53A G120C | 0.974
G51U C97U U132A | -2.51
G51U C82U | -1.77
G52A G61C | -4.29
G52A C70U | -0.605
G52C C73G C82A | -1.97
G52U U125G | -1.12
G52U U125A | -0.984
G52U G69U C79A U87C U129G | -1.06
C53U A121U | 0.893

— the RNAGym collection of RNA variant scans (doi:10.1073/pnas.2313332121)
